# Measured values as given in the supplement of paper PMC11246515.
# ± gives the standard deviation of the averaged measurements.
# Experiment: total protein half-life in vivo (active degradation + dilution); higher = more stable protein
# [1] = E. coli NCM3722 delta-clpP delta-lon delta-hslV, growth: N-lim chemostat, doubling time 6 h
# [2] = E. coli NCM3722 delta-clpP, growth: N-lim chemostat, doubling time 6 h
# [3] = E. coli NCM3722 delta-hslV, growth: N-lim chemostat, doubling time 6 h
# [4] = E. coli NCM3722 delta-lon, growth: N-lim chemostat, doubling time 6 h
# [5] = E. coli NCM3722 delta-smpB, growth: N-lim chemostat, doubling time 6 h
# [6] = wild type E. coli NCM3722, growth: C-lim chemostat, doubling time 3 h
# [7] = wild type E. coli NCM3722, growth: C-lim chemostat, doubling time 6 h
# [8] = wild type E. coli NCM3722, growth: C-lim chemostat, doubling time 12 h
# [9] = wild type E. coli NCM3722, growth: N-lim chemostat, doubling time 6 h
# [10] = wild type E. coli NCM3722, growth: N-lim chemostat, doubling time 12 h
# [11] = wild type E. coli NCM3722, growth: P-lim chemostat, doubling time 6 h
# [12] = wild type E. coli NCM3722, growth: P-lim chemostat, doubling time 12 h
Sequence,total protein half-life in vivo [1] [h],total protein half-life in vivo [2] [h],total protein half-life in vivo [3] [h],total protein half-life in vivo [4] [h],total protein half-life in vivo [5] [h],total protein half-life in vivo [6] [h],total protein half-life in vivo [7] [h],total protein half-life in vivo [8] [h],total protein half-life in vivo [9] [h],total protein half-life in vivo [10] [h],total protein half-life in vivo [11] [h],total protein half-life in vivo [12] [h]
MQLNITGNNVEITEALREFVTAKFAKLEQYFDRINQVYVVLKVEKVTHTSDATLHVNGGEIHASAEGQDMYAAIDGLIDKLARQLTKHKDKLKQH [P0AFX0],4.19 ± 0.41,3.97 ± 0.51,3.49 ± 0.22,4.08 ± 0.13,3.67 ± 0.043,2.51 ± 0.14,4.75 ± 0.17,8.14 ± 0.53,3.39 ± 0.5,7.37 ± 0.34,4.21 ± 0.12,7.16 ± 0.65
MQNITQSWFVQGMIKATTDAWLKGWDERNGGNLTLRLDDADIAPYHDNFHQQPRYIPLSQPMPLLANTPFIVTGSGKFFRNVQLDPAANLGIVKVDSDGAGYHILWGLTNEAVPTSELPAHFLSHCERIKATNGKDRVIMHCHATNLIALTYVLENDTAVFTRQLWEGSTECLVVFPDGVGILPWMVPGTDEIGQATAQEMQKHSLVLWPFHGVFGSGPTLDETFGLIDTAEKSAQVLVKVYSMGGMKQTISREELIALGKRFGVTPLASALAL,3.93,2.62,2.77 ± 0.41,,2.45,,5.1,> 16,,3.97,4.9,10.1 ± 0.11
MQNKLASGARLGRQALLFPLCLVLYEFSTYIGNDMIQPGMLAVVEQYQAGIDWVPTSMTAYLAGGMFLQWLLGPLSDRIGRRPVMLAGVVWFIVTCLAILLAQNIEQFTLLRFLQGISLCFIGAVGYAAIQESFEEAVCIKITALMANVALIAPLLGPLVGAAWIHVLPWEGMFVLFAALAAISFFGLQRAMPETATRIGEKLSLKELGRDYKLVLKNGRFVAGALALGFVSLPLLAWIAQSPIIIITGEQLSSYEYGLLQVPIFGALIAGNLLLARLTSRRTVRSLIIMGGWPIMIGLLVAAAATVISSHAYLWMTAGLSIYAFGIGLANAGLVRLTLFASDMSKGTVSAAMGMLQMLIFTVGIEISKHAWLNGGNGLFNLFNLVNGILWLSLMVIFLKDKQMGNSHEG [P0AEY8],,,,,,3.11,,,,,5.65 ± 0.22,11 ± 2.6
MQNSALKAWLDSSYLSGANQSWIEQLYEDFLTDPDSVDANWRSTFQQLPGTGVKPDQFHSQTREYFRRLAKDASRYSSTISDPDTNVKQVKVLQLINAYRFRGHQHANLDPLGLWQQDKVADLDPSFHDLTEADFQETFNVGSFASGKETMKLGELLEALKQTYCGPIGAEYMHITSTEEKRWIQQRIESGRATFNSEEKKRFLSELTAAEGLERYLGAKFPGAKRFSLEGGDALIPMLKEMIRHAGNSGTREVVLGMAHRGRLNVLVNVLGKKPQDLFDEFAGKHKEHLGTGDVKYHMGFSSDFQTDGGLVHLALAFNPSHLEIVSPVVIGSVRARLDRLDEPSSNKVLPITIHGDAAVTGQGVVQETLNMSKARGYEVGGTVRIVINNQVGFTTSNPLDARSTPYCTDIGKMVQAPIFHVNADDPEAVAFVTRLALDFRNTFKRDVFIDLVCYRRHGHNEADEPSATQPLMYQKIKKHPTPRKIYADKLEQEKVATLEDATEMVNLYRDALDAGDCVVAEWRPMNMHSFTWSPYLNHEWDEEYPNKVEMKRLQELAKRISTVPEAVEMQSRVAKIYGDRQAMAAGEKLFDWGGAENLAYATLVDEGIPVRLSGEDSGRGTFFHRHAVIHNQSNGSTYTPLQHIHNGQGAFRVWDSVLSEEAVLAFEYGYATAEPRTLTIWEAQFGDFANGAQVVIDQFISSGEQKWGRMCGLVMLLPHGYEGQGPEHSSARLERYLQLCAEQNMQVCVPSTPAQVYHMLRRQALRGMRRPLVVMSPKSLLRHPLAVSSLEELANGTFLPAIGEIDELDPKGVKRVVMCSGKVYYDLLEQRRKNNQHDVAIVRIEQLYPFPHKAMQEVLQQFAHVKDFVWCQEEPLNQGAWYCSQHHFREVIPFGASLRYAGRPASASPAVGYMSVHQKQQQDLVNDALNVE [P0AFG3],5.96 ± 0.15,6.43 ± 0.87,5.92 ± 0.14,5.36 ± 0.23,4.99 ± 0.18,2.51 ± 0.028,5.13 ± 0.19,8.677 ± 0.03,5.377 ± 0.027,10.1 ± 0.89,4.72 ± 0.17,9.32 ± 0.68
MQQQKPLEGAQLVIMTIALSLATFMQVLDSTIANVAIPTIAGNLGSSLSQGTWVITSFGVANAISIPLTGWLAKRVGEVKLFLWSTIAFAIASWACGVSSSLNMLIFFRVIQGIVAGPLIPLSQSLLLNNYPPAKRSIALALWSMTVIVAPICGPILGGYISDNYHWGWIFFINVPIGVAVVLMTLQTLRGRETRTERRRIDAVGLALLVIGIGSLQIMLDRGKELDWFSSQEIIILTVVAVVAICFLIVWELTDDNPIVDLSLFKSRNFTIGCLCISLAYMLYFGAIVLLPQLLQEVYGYTATWAGLASAPVGIIPVILSPIIGRFAHKLDMRRLVTFSFIMYAVCFYWRAYTFEPGMDFGASAWPQFIQGFAVACFFMPLTTITLSGLPPERLAAASSLSNFTRTLAGSIGTSITTTMWTNRESMHHAQLTESVNPFNPNAQAMYSQLEGLGMTQQQASGWIAQQITNQGLIISANEIFWMSAGIFLVLLGLVWFAKPPFGAGGGGGGAH [P0AEJ0],7.36,6.64 ± 0.3,6.52 ± 0.46,5.94,5.55 ± 0.64,3.78,,> 16,,,5.89,10.4 ± 0.82
MQQRRPVRRALLSVSDKAGIVEFAQALSARGVELLSTGGTARLLAEKGLPVTEVSDYTGFPEMMDGRVKTLHPKVHGGILGRRGQDDAIMEEHQIQPIDMVVVNLYPFAQTVAREGCSLEDAVENIDIGGPTMVRSAAKNHKDVAIVVKSSDYDAIIKEMDDNEGSLTLATRFDLAIKAFEHTAAYDSMIANYFGSMVPAYHGESKEAAGRFPRTLNLNFIKKLDMRYGENSHQQAAFYIEENVKEASVATATQVQGKALSYNNIADTDAALECVKEFAEPACVIVKHANPCGVAIGNSILDAYDRAYKTDPTSAFGGIIAFNRELDAETAQAIISRQFVEVIIAPSASEEALKITAAKQNVRVLTCGQWGERVPGLDFKRVNGGLLVQDRDLGMVGAEELRVVTKRQPSEQELRDALFCWKVAKFVKSNAIVYAKNNMTIGIGAGQMSRVYSAKIAGIKAADEGLEVKGSSMASDAFFPFRDGIDAAAAAGVTCVIQPGGSIRDDEVIAAADEHGIAMLFTDMRHFRH,5.11 ± 0.42,4.51 ± 0.51,4.73 ± 0.56,4.99 ± 0.032,4.41 ± 0.28,3.19 ± 0.3,5.88 ± 0.38,9.3 ± 0.86,4.36 ± 0.22,6.9 ± 0.074,5.961 ± 0.037,11.9 ± 0.6
MQRARCYLIGETAVVLELEPPVTLASQKRIWRLAQRLVDMPNVVEAIPGMNNITVILRNPESLALDAIERLQRWWEESEALEPESRFIEIPVVYGGAGGPDLAVVAAHCGLSEKQVVELHSSVEYVVWFLGFQPGFPYLGSLPEQLHTPRRAEPRLLVPAGSVGIGGPQTGVYPLATPGGWQLIGHTSLSLFDPARDEPILLRPGDSVRFVPQKEGVC [P0AAV4],5.48 ± 0.23,5.44 ± 0.087,5.73 ± 0.79,7.2 ± 0.64,4.972 ± 0.042,3.51 ± 0.27,6.26 ± 0.1,11.3 ± 0.43,5.41 ± 0.97,11.3 ± 0.39,6.04 ± 0.51,
MQRETVWLVEDEQGIADTLVYMLQQEGFAVEVFERGLPVLDKARKQVPDVMILDVGLPDISGFELCRQLLALHPALPVLFLTARSEEVDRLLGLEIGADDYVAKPFSPREVCARVRTLLRRVKKFSTPSPVIRIGHFELNEPAAQISWFDTPLALTRYEFLLLKTLLKSPGRVWSRQQLMDSVWEDAQDTYDRTVDTHIKTLRAKLRAINPDLSPINTHRGMGYSLRGL,5.69 ± 1.5,4.02 ± 0.41,3.55,4.49 ± 0.45,3.92,2.74 ± 0.18,4.86 ± 0.057,11.5 ± 3.6,3.99,6.73 ± 0.16,4.04,7.89 ± 0.58
MQSERIYLVWAHPRHDSLTAHIADAIHQRAMERKIQVTELDLYRRNFNPVMTPEDEPDWKNMDKRYSPEVHQLYSELLEHDTLVVVFPLWWYSFPAMLKGYIDRVWNNGLAYGDGHKLPFNKVRWVALVGGDKESFVQMGWEKNISDYLKNMCSYLGIEDADVTFLCNTVVFDGEELHASYYQSLLSQVRDMVDAL,,4.52 ± 0.47,4,4.84 ± 0.22,4.07 ± 0.28,2.98 ± 0.16,6.87 ± 1.5,9.75 ± 0.92,4.62 ± 0.12,7.48 ± 1,5.643 ± 0.052,11.5 ± 1.1
MQSWYLLYCKRGQLQRAQEHLERQAVNCLAPMITLEKIVRGKRTAVSEPLFPNYLFVEFDPEVIHTTTINATRGVSHFVRFGASPAIVPSAVIHQLSVYKPKDIVDPATPYPGDKVIITEGAFEGFQAIFTEPDGEARSMLLLNLINKEIKHSVKNTEFRKL [P0AFW0],4.25 ± 0.76,3.41 ± 0.17,3.23,3.931 ± 0.015,2.52 ± 0.22,3.08 ± 0.73,5.24 ± 1.7,6.64 ± 1.1,3.18,5.43 ± 1.4,4.35 ± 0.79,7.71
MQTEHVILLNAQGVPTGTLEKYAAHTADTRLHLAFSSWLFNAKGQLLVTRRALSKKAWPGVWTNSVCGHPQLGESNEDAVIRRCRYELGVEITPPESIYPDFRYRATDPSGIVENEVCPVFAARTTSALQINDDEVMDYQWCDLADVLHGIDATPWAFSPWMVMQATNREARKRLSAFTQLK,4.63 ± 0.67,4.86 ± 0.81,4.79 ± 0.39,4.68 ± 0.56,4.42 ± 0.16,3.09 ± 0.08,6.016 ± 0.044,8.96 ± 0.18,4.39,7.89,5.61,13.1 ± 1.7
MQVKTQSCVVAGKKTVAVTEQTIDWNNNGTLVQITRGGICGSDLHYYQEGKVGNFMIKAPMVLGHEVIGKVIHSDSSELHEGQTVAINPSKPCGHCKYCIEHNENQCTDMRFFGSAMYFPHVDGGFTRYKMVETSQCVPYPAKADEKVMAFAEPLAVAIHAAHQAGELQGKRVFISGVGPIGCLIVSAVKTLGAAEIVCADVSPRSLSLGKEMGADVLVNPQNDDMDHWKAEKGYFDVSFEVSGHPSSVNTCLEVTRARGVMVQVGMGGAMAEFPMMTLIGKEISLRGSFRFTSEFNTAVSWLANGVINPLPLLSAEYPFTDLEEALRFAGDKTQAAKVQLVF,,,,,,1.348 ± 0.0073,2.71,5.81,,,,
MQVSRRQFFKICAGGMAGTTAAALGFAPSVALAETRQYKLLRTRETRNTCTYCSVGCGLLMYSLGDGAKNAKASIFHIEGDPDHPVNRGALCPKGAGLVDFIHSESRLKFPEYRAPGSDKWQQISWEEAFDRIAKLMKEDRDANYIAQNAEGVTVNRWLSTGMLCASASSNETGYLTQKFSRALGMLAVDNQARVUHGPTVASLAPTFGRGAMTNHWVDIKNANLVVVMGGNAAEAHPVGFRWAMEAKIHNGAKLIVIDPRFTRTAAVADYYAPIRSGTDIAFLSGVLLYLLNNEKFNREYTEAYTNASLIVREDYGFEDGLFTGYDAEKRKYDKSSWTYELDENGFAKRDTTLQHPRCVWNLLKQHVSRYTPDVVENICGTPKDAFLKVCEYIAETSAHDKTASFLYALGWTQHSVGAQNIRTMAMIQLLLGNMGMAGGGVNALRGHSNIQGLTDLGLLSQSLPGYMTLPSEKQTDLQTYLTANTPKPLLEGQVNYWGNYPKFFVSMMKAFFGDKATAENSWGFDWLPKWDKGYDVLQYFEMMKEGKVNGYICQGFNPVASFPNKNKVIGCLSKLKFLVTIDPLNTETSNFWQNHGELNEVDSSKIQTEVFRLPSTCFAEENGSIVNSGRWLQWHWKGADAPGIALTDGEILSGIFLRLRKMYAEQGGANPDQVLNMTWNYAIPHEPSSEEVAMESNGKALADITDPATGAVIVKKGQQLSSFAQLRDDGTTSCGCWIFAGSWTPEGNQMARRDNADPSGLGNTLGWAWAWPLNRRILYNRASADPQGNPWDPKRQLLKWDGTKWTGWDIPDYSAAPPGSGVGPFIMQQEGMGRLFALDKMAEGPFPEHYEPFETPLGTNPLHPNVISNPAARIFKDDAEALGKADKFPYVGTTYRLTEHFHYWTKHALLNAILQPEQFVEIGESLANKLGIAQGDTVKVSSNRGYIKAKAVVTKRIRTLKANGKDIDTIGIPIHWGYEGVAKKGFIANTLTPFVGDANTQTPEFKSFLVNVEKV,5.155 ± 0.0061,4.77 ± 0.55,6.6,5.502 ± 0.033,4.72,> 4,5.8,11.4 ± 0.86,5.89,10.4 ± 0.35,4.79 ± 0.5,8.459 ± 0.046
